Test results as given in the supplement of paper PMC11908140.

B1: library; numbered along this chain (parent)
chain: MRKPRAAVGSGHRKQAASQEGRQKHAKNNSQAKPSACDGLARQPEEVVLQASVSSYHLFRDVAEVTAFRGSLLSWYDQEKRDLPWRRRAEDEMDLDRRAYAVWVSEVMLQQTQVATVINYYTGWMQKWPTLQDLASASLEEVNQLWAGLGYYSRGRRLQEGARKVVEELGGHMPRTAETLQQLLPGVGRYTAGAIASIAFGQATGVVDGNVARVLCRVRAIGADPSSTLVSQQLWGLAQQLVDPARPGDFNQAAMELGATVCTPQRPLCSQCPVESLCRARQRVEQEQLLASGSLSGSPDVEECAPNTGQCHLCLPPSEPWDQTLGVVNFPRKASRKPPREESSATCVLEQPGALGAQILLVQRPNSGLLAGLWEFPSVTWEPSEQLQRKALLQELQRWAGPLPATHLRHLGEVVHTFSHIKLTYQVYGLALEGQTPVTTVPPGARWLTQEEFHTAAVSTAMKKVFRVYQGQQPGTCMGSKRSQVSSPCSRKKPRMGQQVLDNFFRSHISTDAHSLNSAAQ

Variants of: B1
Experiment: 8OG:A repair function score (normalized; synonymous = 0, nonsense = -1) (normalized log-likelihood score); higher = more repair activity (WT-like)
Settings: with 8OG:A DNA repair reporter (GFP) in HEK-293 MUTYH KO cells
Protocol: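 Saturation mutagenesis (NNN codon scan) of the MUTYH cDNA (521-aa nuclear isoform NM_001048174.1 / NP_001041639), stably expressed under doxycycline induction in HEK-293 MUTYH knockout cells. Cells were co-transfected with an 8OG:A-bearing GFP repair reporter plus mCherry and sorted 72 h later into GFP+ and GFP− bins, three replicates per tile. The Rosace log2 enrichment (GFP+ vs GFP−) was converted per tile to a normalized function score with synonymous variants centered at 0 and nonsense variants (codons 1-471) at -1; low-abundance variants were removed.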

8OG:A repair function score, by site and new letter:
G150: W -1.09 | R -1.3 | T -1.35 | V -1.22 | M -1.44 | F -1.66 | A -1.42 | I -1.78 | H -1.12 | C -0.982 | K -1.27 | P -1.54 | Y -0.803 | S -1.26 | L -1.18 | E -1.13 | D -1.38 | Q -1.58 | N -1.15
L139: H 0.1 | A -0.241 | G -0.00666 | N 0.213 | P 0.0573 | T 0.00391 | M -0.053 | C -0.0786 | Y -0.0177 | D -0.831 | Q -0.0666 | V 0.0777 | I 0.139 | S -0.0783 | W -0.0565 | R -0.0247 | E -0.17 | F -0.0535 | K -0.511
N143: G -0.139 | T -0.286 | H -0.621 | E -0.196 | W -0.253 | F -0.0267 | D -0.456 | Q -0.222 | Y 0.0152 | L -0.0917 | R -0.181 | V -0.199 | M 0.113 | S -0.133 | C -0.216 | A -0.35 | K -0.343 | I -0.0751 | P -0.4
E140: T -0.149 | Q -0.159 | H -0.253 | C -0.0271 | G -0.183 | M -0.00715 | A -0.0255 | R -0.124 | P -0.438 | Y -0.187 | I -0.242 | S -0.0988 | F -0.353 | D 0.0449 | V -0.181 | N -0.0981 | K -0.15 | L -0.0779 | W -0.595
E141: C -0.219 | G -0.256 | H 0.19 | S -0.0511 | W -0.348 | D -0.251 | M -0.111 | I -0.599 | Y -0.924 | V -0.27 | P -0.499 | N 0.127 | L -0.401 | F -0.392 | T -0.0124 | A -0.0585 | K -0.0452 | R -0.449
S136: V 0.077 | P -0.137 | M 0.116 | R 0.0299 | Q -0.0528 | Y 0.0366 | T 0.078 | N -0.0676 | W -0.154
G148: V -1.08 | R -0.782 | N -0.669 | E -0.792 | K -0.475 | D -0.544 | T -0.549 | Y -0.677 | S -0.286 | L -1.31 | C -0.72 | H -0.166 | A -0.564 | I -1.27 | M -1.1 | P -1.1 | Q -0.44 | W -1.48 | F -0.794
Y151: V -0.583 | A -0.816 | P -1.25 | M -0.45 | S -1.29 | G -1.03 | L -0.0762 | T -0.587 | K -0.808 | E -1.21 | R -0.389 | F -0.064 | D -1 | C -0.944 | H -0.509 | I -0.244 | W -0.534 | Q -0.672 | N -1.33
A137: M -0.417 | V -0.325 | I -0.286 | P -0.869 | R -0.54 | L -1.02 | Y -0.928 | Q -0.0812 | C -0.261 | K -0.626 | H -0.568 | S -0.0075 | E -0.16 | T -0.295 | D -0.219 | N -0.267 | W -1.02 | F -0.738 | G -0.176
A147: V -0.14 | I -0.125 | G -0.174 | T -0.154 | Q 0.00492 | S 0.0618 | D -0.118 | N -0.0408 | E -0.144 | F -0.305 | Y -0.549 | L -0.207 | C -0.226 | K -0.229 | M -0.0248 | P -0.734 | W -0.902 | H -0.241 | R -0.11
L149: C -0.585 | R -0.729 | E -1.24 | T -0.81 | F -0.43 | A -0.323 | D -1.19 | Y -0.657 | Q -1.06 | V -0.906 | P -0.979 | G -0.743 | S -0.335 | K -1.17 | N -0.783 | W -1.46 | M -0.664 | I -0.462 | H -1.82
W146: L -0.263 | M -0.182 | F -0.152 | Q -0.345 | H -0.738 | E -1.03 | K -0.739 | P -1.14 | S -0.39 | Y -0.532 | T -0.294 | N -0.671 | G -0.399 | I -0.138 | A -0.448 | R -1.28 | C -0.255 | D -1.2 | V -0.296
L145: P -1.26 | V -0.0541 | C 0.112 | H 0.0825 | S 0.0372 | Q 0.154 | A 0.0661 | D 0.000565 | N 0.0178 | I -0.102 | M 0.00629 | G 0.0263 | W -0.0219 | R -0.0437 | F 0.0113 | T -0.001 | K 0.0459 | E -0.0292 | Y 0.0659
Y152: W -0.762 | N -0.779 | A -0.881 | F -0.371 | T -0.854 | S -1.19 | L -0.707 | C -0.782 | K -1.07 | Q -0.592 | E -1.16 | R -0.956 | M -0.3 | I -0.496 | V -0.573 | P -1.28 | G -0.713 | H -0.695 | D -1.08
S153: L 0.0439 | Y -0.143 | H -0.0258 | N -0.152 | T 0.158 | Q -0.127 | V -0.00826 | C -0.074 | A 0.0766 | F 0.0735 | E -0.117 | I -0.105 | W -0.198 | D -0.368 | R -0.265 | M -0.237 | P 0.0253 | K -0.0744 | G -0.237
V142: F -0.926 | N -1.86 | C -0.143 | I -0.297 | H -0.882 | R -0.841 | P -0.569 | A -0.377 | K -0.84 | Y -0.971 | L -0.245 | D -1.15 | T -0.532 | S -0.632 | G -0.5 | Q -0.397 | M -0.673 | W -0.941 | E -0.728
R154: C -1.08 | A -0.88 | D -1.11
S138: N -0.128 | R 0.0347 | C -0.385 | G 0.0657 | T 0.0193 | Y -0.0612 | D -0.192 | I -0.286 | M -0.0953 | H 0.0365 | E -0.00767 | K -0.105 | P -0.0208 | Q -0.0419 | A -0.0766 | F -0.378 | V -0.188 | L -0.279 | W -0.724
Q144: C -0.0295 | L -0.000148 | H -0.0216 | D -0.5 | F -0.198 | R 0.0872 | M 0.0906 | A -0.134 | T -0.0237 | K -7.85e-05 | E -0.0907 | Y -0.286 | S 0.0476 | N -0.299 | V -0.0203 | P -0.282 | W -0.282 | I 0.051 | G -0.106
